Reference: publication PMC10798635

Columns and labels:
Settings in all cases: room temperature 30-45 min, BLI: 20 mM Tris-HCl pH 7.4, 80 mM NaCl, 20 mM KCl, 1 mM DTT
[1] = tested on: Hantavirus nucleocapsid protein (NP), wild type (Sin Nombre virus); assay: filter binding
[2] = tested on: Hantavirus nucleocapsid protein (NP), wild type (Sin Nombre virus); assay: filter binding; remark: listed apart in the source
[3] = tested on: Hantavirus nucleocapsid protein (NP), wild type (Sin Nombre virus); assay: filter binding; remark: listed apart in the source
[4] = tested on: Hantavirus nucleocapsid protein (NP), wild type (Sin Nombre virus); assay: filter binding; remark: listed apart in the source
[5] = tested on: Hantavirus nucleocapsid protein (NP), wild type (Sin Nombre virus); assay: BLI

Mutant 1 (VCP 5' UTR nt 1-542)
Kd [1]: 42.2 nM

Mutant 2 (VCP 5' UTR nt 542-988)
Kd [1]: 1900 nM
Kd [2]: 1600 nM

Mutant 3 (mutant 1 lacking nt 530-542)
Kd [3]: 2400 nM
Kd [1]: 2400 nM

Mutant 4 (wild type UTR lacking nt 530-542)
Kd [1]: 3900 nM
Kd [4]: 1400 nM

VCP mRNA 5' UTR wild type
Kd [5]: 25 nM
Kd [1]: 47 nM
